Molecular target: the molecule itself
Assay: cryo-EM structure

B1: mycobacterial proteasome ATPase (Mpa), Mycobacterium tuberculosis, wild type (enzyme)
chain: MGESERSEAFGIPRDSPLSSGDAAELEQLRREAAVLREQLENAVGSHAPTRSARDIHQLEARIDSLAARNSKLMETLKEARQQLLALREEVDRLGQPPSGYGVLLATHDDDTVDVFTSGRKMRLTCSPNIDAASLKKGQTVRLNEALTVVEAGTFEAVGEISTLREILADGHRALVVGHADEERVVWLADPLIAEDLPDGLPEALNDDTRPRKLRPGDSLLVDTKAGYAFERIPKAEVEDLVLEEVPDVSYADIGGLSRQIEQIRDAVELPFLHKELYREYSLRPPKGVLLYGPPGCGKTLIAKAVANSLAKKMAEVRGDDAHEAKSYFLNIKGPELLNKFVGETERHIRLIFQRAREKASEGTPVIVFFDEMDSIFRTRGTGVSSDVETTVVPQLLSEIDGVEGLENVIVIGASNREDMIDPAILRPGRLDVKIKIERPDAEAAQDIYSKYLTEFLPVHADDLAEFDGDRSACIKAMIEKVVDRMYAEIDDNRFLEVTYANGDKEVMYFKDFNSGAMIQNVVDRAKKNAIKSVLETGQPGLRIQHLLDSIVDEFAENEDLPNTTNPDDWARISGKKGERIVYIRTLVTGKSSSASRAIDTESNLGQYL
- stoichiometry N: 6

From PMC8755798 (Nature Communications, 2022)
